This note sets out measurements from publication PMC4778124, “A continuous sirtuin activity assay without any coupling to enzymatic or chemical reactions” (Scientific Reports, 2016).

Substrate in series [1]: CC(=O)N[C@@H](CCC(=O)O)C(=O)N[C@@H](C)C(=O)N[C@@H](CC(C)C)C(=O)N1CCC[C@H]1C(=O)N[C@@H](CCCCN)C(=O)N[C@@H](CCCCNC(=O)CCCCCCCCCCNC(=O)c1ccccc1N)C(=O)N[C@@H](Cc1ccc(O)c([N+](=O)[O-])c1)C(=O)NCC(=O)NCC(N)=O
The series can be described thus: purified protein, by the assay type. Conditions: other: Sirt1 500 nM; fluorescence spectrophotometer (footnote a); 37.0 °C.

Substrate in series [2]: CCCCCCCCCCCCCC(=O)NCCCC[C@H](NC(=O)[C@H](CCCCN)NC(=O)[C@@H]1CCCN1C(=O)[C@H](CC(C)C)NC(=O)[C@H](C)NC(=O)[C@H](CCC(=O)O)NC(C)=O)C(=O)N[C@H](C(=O)NCC(=O)NCC(N)=O)[C@@H](C)O
The series can be described thus: HPLC based activity assay. It is filed as biochemical, human. The following applies: other: HPLC; Sirt5 0.5 µM; pH 7.8; 37.0 °C. On the procedure:
(§1) For the determination of kinetic constants for all sirtuin mediated reactions solutions containing 20 mM TRIS/HCl pH 7.8, 150 mM NaCl, 5 mM MgCl2 (assay-buffer), 500 μM NAD^+ and varying substrate concentrations (0.5–100 μM) were used. Deacylation was started by adding human sirtuin to reach a final concentration of 0.01–0.5 μM. Enzyme-catalyzed reaction was stopped using TFA (1% final concentration) after 1 min to 180 min of incubation at 37 °C depending on substrate reactivity. The cleavage rate of the different TNFα peptide derivatives was analyzed using analytical reversed phase HPLC. 40 to 80 μl of compounds or reaction solutions were injected and separated using a linear gradient from 5% to 95% solvent B within 6min. The product and substrate peaks were quantified using absorbance at 220 nm or 365 nm (absorption of 3-Nitrotyrosyl moiety). The peak areas were integrated and converted to initial velocity rates calculated from the ratio of product area to total peak area. Linear regression of conversions plotted against time yielded reaction rates in μM/min (relative conversion below 20% of substrate). Non-linear regression according to Michaelis-Menten of the reaction rates at different substrate concentrations yielded KM- and kcat-values using the program SigmaPlot 8 (Systat Software, San Jose, USA). All measurements were done in duplicates.

Series [3] deals with human sirtuin 6, His-tagged Sirt6 (1-355) (human) (UniProt Q8N6T7).
Substrate in series [4]: CCCCCCCCCCCCCC(=O)NCCCC[C@H](NC(=O)[C@H](CCCCN)NC(=O)[C@@H]1CCCN1C(=O)[C@H](CC(C)C)NC(=O)[C@H](C)NC(=O)[C@H](CCC(=O)O)NC(C)=O)C(=O)N[C@H](C(=O)NCC(=O)NCC(N)=O)[C@@H](C)O
Kind of series: HPLC based activity assay. The following applies: other: HPLC; Sirt3 0.1 µM; pH 7.8; 37.0 °C. The format is biochemical, human. The protocol:
as §1
The reactions were performed with 0.1- 0.5 µM sirtuin, 500 µM NAD^+ and 50µM 13/16. All reactions were done in duplicates (n=2).

Substrate in series [5]: CC(=O)N[C@@H](CCC(=O)O)C(=O)N[C@@H](C)C(=O)N[C@@H](CC(C)C)C(=O)N1CCC[C@H]1C(=O)N[C@@H](CCCCN)C(=O)N[C@@H](CCCCNC(=O)CCCCCCCCCCNC(=O)c1ccccc1N)C(=O)N[C@@H](Cc1ccc(O)c([N+](=O)[O-])c1)C(=O)NCC(=O)NCC(N)=O
The series can be described thus: Continuous fluorescence assay, substrate kinetics. It is filed as biochemical, human. The following applies: other: FS (fluorescence spectrometer); Sirt3 0.1 µM; 37.0 °C. The protocol:
The fluorescence measurements were performed on a Hitachi F-4500 fluorescence spectrophotometer (Tokyo, Japan) at λEx = 310 nm and λEm = 405 nm (slitEx = 5 nm, slitEm = 2.5 nm, PMT = 700 V for 3, 4 and 5 as well as slitEx = 10 nm, slitEm = 10 nm, PMT = 950 V for 4a). Each reaction mixture contained assay-buffer, 0.5 mM NAD^+ and various peptide concentrations (0.1–100 μM) and was preincubated for 5 minutes at 37 °C. The reaction was started by adding human sirtuin (0.1–0.5 μM) and observed for 5–10 minutes. Product formation could be monitored by increase of relative fluorescence. This signal was converted into product concentration via calibration lines. The slope of the linear regression of product formation against time yielded the reaction velocity rates in μM/s. KM and kcat were obtained by non-linear regression according to Michaelis-Menten. All measurements were done in duplicates. For determination of reaction velocity rates in μM/s calibration lines were necessary. […] The reaction mixture was analyzed with HPLC, to control if the entire peptide substrate was turned to product. Additionally the mixture was diluted (0.1–25 μM) and measured with Hitachi F-4500 fluorescence spectrophotometer at the same conditions as described above.
The microtiter plate fluorescence measurements were performed on a Tecan Infinite M200 microplate reader (Maennedorf, Switzerland) at λEx = 320 nm and λEm = 408 nm (lag time 9 μs, integration time […], gain 160, 170 or 182). The reactions (total volume 100 μl) were measured in black low-binding 96-well microtiter plates (NUNC). […] The signals were converted into product concentration via calibration lines and the resulting data were evaluated as described above (single fluorescence measurement). […] The reaction mixture for the calibration lines was prepared as described for the single fluorescence measurements. […] The resulting plots were analyzed by a competitive inhibition and non-competitive inhibition model using the program Sigma Plot 8. […] The negative Ki value can be determined as intersection with the X-axis from these plots.

*: point of attachment. Myristoyl = CCCCCCCCCCCCCC(=O)*

Chain of human sirtuin 6, His-tagged Sirt6 (1-355) (human) (Q8N6T7 whole entry): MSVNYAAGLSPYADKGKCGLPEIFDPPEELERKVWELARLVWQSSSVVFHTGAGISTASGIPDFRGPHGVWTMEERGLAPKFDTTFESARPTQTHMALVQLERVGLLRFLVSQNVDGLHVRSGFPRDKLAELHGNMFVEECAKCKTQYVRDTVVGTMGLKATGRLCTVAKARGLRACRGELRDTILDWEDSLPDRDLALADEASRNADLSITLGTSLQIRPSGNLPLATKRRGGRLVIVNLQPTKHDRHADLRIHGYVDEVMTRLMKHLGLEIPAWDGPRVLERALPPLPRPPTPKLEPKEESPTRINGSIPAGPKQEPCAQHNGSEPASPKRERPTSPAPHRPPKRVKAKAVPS

B1: Sirt1 (Homo sapiens) (protein)
chain: MADEAALALQPGGSPSAAGADREAASSPAGEPLRKRPRRDGPGLERSPGEPGGAAPEREVPAAARGCPGAAAAALWREAEAEAAAAGGEQEAQATAAAGEGDNGPGLQGPSREPPLADNLYDEDDDDEGEEEEEAAAAAIGYRDNLLFGDEIITNGFHSCESDEEDRASHASSSDWTPRPRIGPYTFVQQHLMIGTDPRTILKDLLPETIPPPELDDMTLWQIVINILSEPPKRKKRKDINTIEDAVKLLQECKKIIVLTGAGVSVSCGIPDFRSRDGIYARLAVDFPDLPDPQAMFDIEYFRKDPRPFFKFAKEIYPGQFQPSLCHKFIALSDKEGKLLRNYTQNIDTLEQVAGIQRIIQCHGSFATASCLICKYKVDCEAVRGDIFNQVVPRCPRCPADEPLAIMKPEIVFFGENLPEQFHRAMKYDKDEVDLLIVIGSSLKVRPVALIPSSIPHEVPQILINREPLPHLHFDVELLGDCDVIINELCHRLGGEYAKLCCNPVKLSEITEKPPRTQKELAYLSELPPTPLHVSEDSSSPERTSPPDSSVIVTLLDQAAKSNDDLDVSESKGCMEEKPQEVQTSRNVESIAEQMENPDLKNVGSSTGEKNERTSVAGTVRKCWPNRVAKEQISRRLDGNQYLFLPPNRYIFHGAEVYSDSEDDVLSSSSCGSNSDSGTCQSPSLEEPMEDESEIEEFYNGLEDEPDVPERAGGAGFGTDGDDQEAINEAISVKQEVTDMNYPSNKS
What is called Km is the concentration of substrate that gives half-maximal velocity. Consider B1, for which, in series [1], the Km was 0.7 ± 0.08 µM.

B2: Sirt5 (Homo sapiens) (protein)
chain: SSSMADFRKFFAKAKHIVIISGAGVSAESGVPTFRGAGGYWRKWQAQDLATPLAFAHNPSRVWEFYHYRREVMGSKEPNAGHRAIAECETRLGKQGRRVVVITQNIDELHRKAGTKNLLEIHGSLFKTRCTSCGVVAENYKSPICPALSGKGAPEPGTQDASIPVEKLPRCEEAGCGGLLRPHVVWFGENLDPAILEEVDRELAHCDLCLVVGTSSVVYPAAMFAPQVAARGVPVAEFNTETTPATNRFRFHFQGPCGTTLPEALACHENETVS
notes: made in house
For B2, in series [2], the Km is 16.5 ± 3.1 µM, the kcat is 5.7∙10^-3 ± 0.3∙10^-3 s^-1 and the kcat/Km is on record as 3.48∙10^2 M^-1s^-1.

B3: myristoylated TNFα-derived peptide 1a (peptide)
peptide: Ac-EALPKK(Myristoyl)TGG-NH2
SMILES: CCCCCCCCCCCCCC(=O)NCCCC[C@H](NC(=O)[C@H](CCCCN)NC(=O)[C@@H]1CCCN1C(=O)[C@H](CC(C)C)NC(=O)[C@H](C)NC(=O)[C@H](CCC(=O)O)NC(C)=O)C(=O)N[C@H](C(=O)NCC(=O)NCC(N)=O)[C@@H](C)O
As for B3, the KM of Sirt6-mediated deacylation, HPLC-based activity assay in series [3] stood at 6 µM.

B4: Sirt3 (Homo sapiens) (protein)
chain: MAFWGWRAAAALRLWGRVVERVEAGGGVGPFQACGCRLVLGGRDDVSAGLRGSHGARGEPLDPARPLQRPPRPEVPRAFRRQPRAAAPSFFFSSIKGGRRSISFSVGASSVVGSGGSSDKGKLSLQDVAELIRARACQRVVVMVGAGISTPSGIPDFRSPGSGLYSNLQQYDLPYPEAIFELPFFFHNPKPFFTLAKELYPGNYKPNVTHYFLRLLHDKGLLLRLYTQNIDGLERVSGIPASKLVEAHGTFASATCTVCQRPFPGEDIRADVMADRVPRCPVCTGVVKPDIVFFGEPLPQRFLLHVVDFPMADLLLILGTSLEVEPFASLTEAVRSSVPRLLINRDLVGPLAWHPRSRDVAQLGDVVHGVESLVELLGWTEEMRDLVQRETGKLDGPDK
notes: made in house
For B4, in series [4], the Km came to 1.6 ± 0.4 µM, the kcat is on record as 4.7∙10^-2 ± 0.3∙10^-2 s^-1 and the kcat/Km was 2.95∙10^4 M^-1s^-1. For the same molecule, in series [5], the Km was 2.4 ± 0.2 µM, the kcat is given as 1.2∙10^-2 ± 0.3∙10^-3 s^-1 and the kcat/Km was 5.15∙10^3 M^-1s^-1.
